The record followed here is article PMC9865888.

This assay deals with S. aureus DNA gyrase fusion truncate GyrB27:A56 (GKdel) (Staphylococcus aureus) (UniProt P66937). Kind of assay: crystal structure; 2.8 Å, space group P6_(1); microbatch under oil, 20 °C; complex with 20-447T DNA duplex, zoliflodacin and MnCl2; 90 mM Bis-Tris pH 6.3, 9% PEG 5 kMME.

In general, stoichiometry N refers to the number of molecules, sites or subunits per partner or assembly. “S. aureus DNA gyrase fusion truncate GyrB27:A56 (GKdel) (from UniProt P66937 409-644; Q99XG5 2-491) (enzyme)” registered a stoichiometry N of 2.
